{
  "source": "patent US20050271676A1",
  "about": "“Inducing cellular immune responses to human immunodeficiency virus-1 using peptide and nucleic acid compositions” (Epimmune Inc., priority 1993, published 2005)",
  "key": {"HLA-DRB1*0701 (DR7)": {"molecular_target": "T1, HLA-DRB1*0701 (DR7) (Homo sapiens, UniProt P01903+P01911, A100R/A102G/A103Q/D57E/D86V/E43K/F76Y/K127E/L162R/M171V/P40G/Q125H/Q99D/R33Q/R42Y/R54Q/S133A/S66F/T210M/V115G/Y107V/Y59L/Y89S)", "T1 construct": "endogenous in cells; host or cells: Pitout", "experiment": "biochemical", "format": "binding"}, "HLA-DRB1*0802 (DR8w2)": {"molecular_target": "T2, HLA-DRB1*0802 (DR8w2) (Homo sapiens, UniProt P01903+P01911, A100R/A103L/A169T/F76Y/H45Y/I96F/K41T/L162R/M171V/P40S/Q125H/Q178H/Q39Y/Q99D/R218S/R42G/S66Y/V115G/W38E)", "T2 construct": "endogenous in cells", "experiment": "biochemical", "format": "binding"}, "HLA-DRB1*1302 (DR6w19)": {"molecular_target": "HLA-DRB1*1302 (DR6w19) (Homo sapiens, UniProt P01903+P01911, A100E/A169T/K41T/L162R/M171V/P40S/Q125H/Q178H/Q39Y/Q99D/R42S/S66N/T262R/V115G/W38E/Y61H)", "experiment": "purified HLA class II binding assay, DRB1*1302 (DR6w19)", "settings": "for DR6w19 binding information: Table XXb, HIV DR 3a motif peptides"}, "HLA-A*0201": {"molecular_target": "HLA-A*0201 (Homo sapiens, UniProt P04439, D140Y/D185E/D98H/E176V/E277Q/G131W/G231S/I119V/I121R/I166T/I218V/L300P/L318F/N151K/N90K/P208A/P217A/Q86G/Q94H/R138H/R169H/T345S)", "experiment": "purified HLA class I binding assay, A*0201", "settings": "for A*0201 (binding information) / A*0201 binding (HIV A02 Super Motif Peptides with Binding Information): unit not given; for A*0201 binding (HIV A02 Super Motif Peptides with Binding Information): purified HLA-A*0201"}, "HLA-DRB1*0301 (DR3)": {"molecular_target": "T3, HLA-DRB1*0301 (DR3) (Homo sapiens, UniProt P01903+P01911, A100K/A102G/A103R/A169T/F55Y/I96L/K41T/L162R/M171V/P40S/Q125H/Q178H/Q39Y/R42S/S66N/T106N/T262R/W38E/Y61H)", "T3 construct": "endogenous in cells; host or cells: MAT", "T3 sequence (P01903 26-254 partner, other chains not shown)": "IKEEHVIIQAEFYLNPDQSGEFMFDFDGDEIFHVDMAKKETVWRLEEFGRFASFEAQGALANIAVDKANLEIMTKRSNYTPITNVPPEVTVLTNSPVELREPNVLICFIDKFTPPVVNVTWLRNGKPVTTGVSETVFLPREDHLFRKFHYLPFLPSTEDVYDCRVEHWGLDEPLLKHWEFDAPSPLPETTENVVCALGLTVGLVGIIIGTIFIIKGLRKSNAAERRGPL", "experiment": "purified HLA class II binding assay, DRB1*0301 (DR3), pH 4.5", "settings": "for DR3 binding information: Table XXb, HIV DR 3a motif peptides"}, "HLA-A*0202": {"molecular_target": "HLA-A*0202 (Homo sapiens, UniProt P04439, D140Y/D185E/D98H/E176V/E277Q/G131W/G231S/I119L/I121R/I166T/I218V/L180W/L300P/L318F/N151K/N90K/P208A/P217A/Q67R/Q86G/Q94H/R138H/R169H/T345S)", "experiment": "purified HLA class I binding assay, A*0202"}, "HLA-A*0203": {"molecular_target": "HLA-A*0203 (Homo sapiens, UniProt P04439, A173T/D140Y/D185E/D98H/E277Q/G131W/G231S/I119V/I121R/I166T/I218V/L180W/L300P/L318F/N151K/N90K/P208A/P217A/Q86G/Q94H/R138H/R169H/T345S)", "experiment": "purified HLA class I binding assay, A*0203"}, "HLA-A*0206": {"molecular_target": "HLA-A*0206 (Homo sapiens, UniProt P04439, D140Y/D185E/D98H/E176V/E277Q/F33Y/G131W/G231S/I119V/I121R/I166T/I218V/L300P/L318F/N151K/N90K/P208A/P217A/Q86G/Q94H/R138H/R169H/T345S)", "experiment": "purified HLA class I binding assay, A*0206"}, "HLA-A*0301": {"molecular_target": "T4, HLA-A*0301 (Homo sapiens, UniProt P04439)", "T4 construct": "endogenous in cells; host or cells: GM3107", "experiment": "purified HLA class I binding assay, A*0301", "settings": "HIV A03 motif peptides, Table XVI; binding value to purified HLA-A*0301, unit not given"}, "HLA-A*6802": {"molecular_target": "HLA-A*6802 (Homo sapiens, UniProt P04439, A269V/D140Y/D185E/E176V/E277Q/E87N/F33Y/G231S/I121R/I166T/I218V/L180W/L300P/L318F/N151K/P208A/P217A/Q86R/R138H/R169H/S129P/T345S/V36M)", "experiment": "purified HLA class I binding assay, A*6802"}, "[1]": {"settings": "HIV A02 super motif peptides, Table VIII"}, "[2]": {"settings": "HIV A02 Super Motif Peptides with Binding Information, Table VIII"}},
  "note": "pIC50: −log10 of the molar value. No end group written: not given here.",
  "data": [
    {"sequence": "IKQEFGIPY", "values": [
      {"measurement": "DR7 binding information", "setting": "HLA-DRB1*0701 (DR7)", "value": "−0.0014"},
      {"measurement": "DR8w2 binding information", "setting": "HLA-DRB1*0802 (DR8w2)", "value": "−0.0009"},
      {"measurement": "DR6w19 binding information", "setting": "HLA-DRB1*1302 (DR6w19)", "value": 0.0123}
    ]},
    {"sequence": "ILRQRKTDR", "values": [
      {"measurement": "DR7 binding information", "setting": "HLA-DRB1*0701 (DR7)", "value": "−0.0014"},
      {"measurement": "DR8w2 binding information", "setting": "HLA-DRB1*0802 (DR8w2)", "value": 0.0270},
      {"measurement": "DRw619 binding information", "setting": "HLA-DRB1*1302 (DR6w19); Table XXd, HIV DR 3b motif peptides", "value": 0.0016}
    ]},
    {"sequence": "IVTDSQYAL", "values": [
      {"measurement": "A*0201 (binding information)", "setting": "HLA-A*0201; [1]", "value": 0.0024},
      {"measurement": "DR7 binding information", "setting": "HLA-DRB1*0701 (DR7)", "value": "−0.0014"},
      {"measurement": "DR8w2 binding information", "setting": "HLA-DRB1*0802 (DR8w2)", "value": "−0.0009"},
      {"measurement": "DR6w19 binding information", "setting": "HLA-DRB1*1302 (DR6w19)", "value": 0.0108}
    ]},
    {"sequence": "KCQLKOEAMHGQVDC (KCQLKGEAMHGQVDC; HUMAN IMMUNO… VIRUS)", "values": [
      {"measurement": "DR3 binding information", "setting": "HLA-DRB1*0301 (DR3)", "value": "−0.0017"}
    ]},
    {"sequence": "KLNWASQIYA [25.0161]", "values": [
      {"measurement": "pIC50", "setting": "HLA-A*0202", "value": 5.41},
      {"measurement": "pIC50", "setting": "HLA-A*0203", "value": 6.40},
      {"measurement": "pIC50", "setting": "HLA-A*0206", "value": 5.21}
    ]},
    {"sequence": "LLWKGEGAVV [1069.33]", "values": [
      {"measurement": "pIC50", "setting": "HLA-A*0202", "value": 6.20},
      {"measurement": "pIC50", "setting": "HLA-A*0203", "value": 7.60},
      {"measurement": "pIC50", "setting": "HLA-A*0206", "value": 6.11}
    ]},
    {"sequence": "LVEICTEMEKECKIS", "values": [
      {"measurement": "DR3 binding information", "setting": "HLA-DRB1*0301 (DR3)", "value": "−0.0017"}
    ]},
    {"sequence": "MLNTVGGIIQA", "values": [
      {"measurement": "A*0201 binding (HIV A02 Super Motif Peptides with Binding Information)", "setting": "HLA-A*0201", "value": 0.0022},
      {"measurement": "A0301 (binding information)", "setting": "HLA-A*0301", "value": 0.0005}
    ]},
    {"sequence": "MVEQMIIEDI", "values": [
      {"measurement": "A*0201 (binding information)", "setting": "HLA-A*0201; [2]", "value": 0.0002}
    ]},
    {"sequence": "MVEQMIIEDII", "values": [
      {"measurement": "A*0201 (binding information)", "setting": "HLA-A*0201; [1]", "value": 0.0001}
    ]},
    {"sequence": "NVWAIIIACV", "values": [
      {"measurement": "A*0201 (binding information)", "setting": "HLA-A*0201; [2]", "value": 0.0002}
    ]},
    {"sequence": "QMIIEDIISL", "values": [
      {"measurement": "A*0201 (binding information)", "setting": "HLA-A*0201; [2]", "value": 0.0023}
    ]},
    {"sequence": "STVQCTIIGI", "values": [
      {"measurement": "A*0201 (binding information)", "setting": "HLA-A*0201; [2]", "value": 0.001}
    ]},
    {"sequence": "VAKEIVASC", "values": [
      {"measurement": "DR7 binding information", "setting": "HLA-DRB1*0701 (DR7)", "value": 0.0015}
    ]},
    {"sequence": "VIQDNSEIKV", "values": [
      {"measurement": "A*0201 binding", "setting": "HLA-A*0201; HIV A02 supermotif peptides, Table VIII, binding value with unit not given", "value": 0.0013}
    ]},
    {"sequence": "VIQGNSDIK", "values": [
      {"measurement": "DR7 binding information", "setting": "HLA-DRB1*0701 (DR7)", "value": "−0.0014"},
      {"measurement": "DR8w2 binding information", "setting": "HLA-DRB1*0802 (DR8w2)", "value": "−0.0009"},
      {"measurement": "DR6w19 binding information", "setting": "HLA-DRB1*1302 (DR6w19)", "value": 0.0447}
    ]},
    {"sequence": "VLAEAMSQV", "values": [
      {"measurement": "A*0201 binding (HIV A02 Super Motif Peptides with Binding Information)", "setting": "HLA-A*0201", "value": 0.1100},
      {"measurement": "DR7 binding information", "setting": "HLA-DRB1*0701 (DR7)", "value": 0.0025}
    ]},
    {"sequence": "VVEEKAFSP", "values": [
      {"measurement": "DR7 binding information", "setting": "HLA-DRB1*0701 (DR7)", "value": 0.0003}
    ]},
    {"sequence": "WAGIKQEFGIPYNPQ [Peptide 35.0131]", "values": [
      {"measurement": "pIC50", "setting": "HLA-DRB1*0301 (DR3)", "value": 6.52}
    ]},
    {"sequence": "WATIIACVPT", "values": [
      {"measurement": "A*0201 (binding information)", "setting": "HLA-A*0201; [2]", "value": 0.0002}
    ]},
    {"sequence": "WMTNNPPIPV [25.0139]", "values": [
      {"measurement": "pIC50", "setting": "HLA-A*0201", "value": 7.01},
      {"measurement": "pIC50", "setting": "HLA-A*0202", "value": 5.51},
      {"measurement": "pIC50", "setting": "HLA-A*0203", "value": 7.77},
      {"measurement": "pIC50", "setting": "HLA-A*6802", "value": 5.65}
    ]}
  ]
}
